Experimental data from publication PMC9699676, “Host nucleases generate prespacers for primed adaptation in the E. coli type I-E CRISPR-Cas system”.

Assays:
Cas1;Cas2 [1] = biological target: T1, Cas1;Cas2 (Escherichia coli;Escherichia coli, UniProt Q46896;P45956 1-305;1-94, |); assay: EMSA; preannealed; 40 mM Tris-HCl pH 7.5, 50 mM NaCl, 10 mM MgCl2, 0.5 mM TCEP, 0.1 mg/ml BSA; EMSA (Fig. S9) 25 nM DNA, 2 uM Cas1-Cas2, 37 C 30 min; footprinting 0.2 uM DNA, 1.6; details: protein: recombinant;recombinant; tags: ;; chain copies: 4;2; label: 5'-32P on strand 1; 28-bp duplex, single 3' overhang 5 nt
T1 sequence 1: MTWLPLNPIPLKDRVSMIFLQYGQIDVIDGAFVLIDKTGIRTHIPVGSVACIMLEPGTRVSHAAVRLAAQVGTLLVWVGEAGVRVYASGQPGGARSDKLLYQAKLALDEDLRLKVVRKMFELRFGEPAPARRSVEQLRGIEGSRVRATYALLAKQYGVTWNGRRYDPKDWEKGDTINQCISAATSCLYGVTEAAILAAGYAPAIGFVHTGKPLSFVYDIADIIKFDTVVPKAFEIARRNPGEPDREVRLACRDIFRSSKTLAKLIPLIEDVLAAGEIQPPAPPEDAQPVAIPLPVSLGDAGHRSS
T1 sequence 2: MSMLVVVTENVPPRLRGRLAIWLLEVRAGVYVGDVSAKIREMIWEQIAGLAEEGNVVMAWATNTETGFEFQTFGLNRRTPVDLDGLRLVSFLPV

Cas1;Cas2 [2] = biological target: T1, Cas1;Cas2; assay: EMSA; preannealed; reference for substrate 10; 40 mM Tris-HCl pH 7.5, 50 mM NaCl, 10 mM MgCl2, 0.5 mM TCEP, 0.1 mg/ml BSA; EMSA (Fig. S9) 25 nM DNA, 2 uM Cas1-Cas2, 37 C 30 min; footprinting 0.2 uM DNA, 1.6; details: protein: recombinant;recombinant; tags: ;; chain copies: 4;2; label: 5'-32P on strand 1; 23-bp duplex, 3' overhang 5 nt on each end
Cas1;Cas2 [3] = biological target: T1, Cas1;Cas2; assay: EMSA; preannealed; longer overhang stimulated binding; 40 mM Tris-HCl pH 7.5, 50 mM NaCl, 10 mM MgCl2, 0.5 mM TCEP, 0.1 mg/ml BSA; EMSA (Fig. S9) 25 nM DNA, 2 uM Cas1-Cas2, 37 C 30 min; footprinting 0.2 uM DNA, 1.6; details: protein: recombinant;recombinant, tags: ;, chain copies: 4;2, label: 5'-32P on strand 1, 28-bp duplex
Cas1;Cas2 [4] = biological target: T1, Cas1;Cas2; assay: EMSA; strands added separately; 40 mM Tris-HCl pH 7.5, 50 mM NaCl, 10 mM MgCl2, 0.5 mM TCEP, 0.1 mg/ml BSA; EMSA (Fig. S9) 25 nM DNA, 2 uM Cas1-Cas2, 37 C 30 min; footprinting 0.2 uM DNA, 1.6; details: protein: recombinant;recombinant, tags: ;, chain copies: 4;2, label: 5'-32P on strand 1, 33-bp duplex
Cas1;Cas2 [5] = biological target: T1, Cas1;Cas2; assay: exonuclease footprinting; RecJ with RecBC or RecBCD, 1 mM ATP; 33-nt product; 40 mM Tris-HCl pH 7.5, 50 mM NaCl, 10 mM MgCl2, 0.5 mM TCEP, 0.1 mg/ml BSA; EMSA (Fig. S9) 25 nM DNA, 2 uM Cas1-Cas2, 37 C 30 min; footprinting 0.2 uM DNA, 1.6; details: protein: recombinant;recombinant; tags: ;; chain copies: 4;2; label: 3'-FAM on strand 1; fork; 23-bp duplex; extended 5' arm annealed to strand 3 as 15-bp blunt duplex

B1: substrate 3 (dsDNA)
DNA 1: ATTTACTACTCGTTCTGGTGTTTCTCGT
DNA 2: ACGAGAAACACCAGAACGAGTAGTAAATTGGGC
B1: binds (Cas1;Cas2 [1]).

B2: substrate 2 (dsDNA)
DNA 1: ATTTACTACTCGTTCTGGTGTTTCTCGT
DNA 2: AAACACCAGAACGAGTAGTAAATTGGGC
B2: binds (Cas1;Cas2 [2]).

B3: substrate 4 (dsDNA)
DNA 1: ATTTACTACTCGTTCTGGTGTTTCTCGT
DNA 2: ACGAGAAACACCAGAACGAGTAGTAAATTGGGCTT
B3: binds (Cas1;Cas2 [3]; single 3' overhang 7 nt with PAM).

B4: substrate 10 (33/37) (dsDNA)
DNA 1: GCCCAATTTACTACTCGTTCTGGTGTTTCTCGT
DNA 2: ACGAGAAACACCAGAACGAGTAGTAAATTGGGCTTGA
With B4 the binding signal (Cas1;Cas2 [4]; single 3' overhang 4 nt with PAM) was 18 fold more than preannealed.

B5: substrate 9 (33/35) (dsDNA)
DNA 1: B4 DNA 1
DNA 2: B3 DNA 2
For B5, the binding signal (Cas1;Cas2 [4]; single 3' overhang 2 nt with PAM) was 5 fold more than preannealed.

B6: substrate 5 (dsDNA)
DNA 1: ATTTACTACTCGTTCTGGTGTTTCTCGT
DNA 2: B4 DNA 2
B6: binds (Cas1;Cas2 [3]; single 3' overhang 9 nt with PAM).

B7: double fork with 15-bp blunt end (Fig. 4B, S7) (dsDNA)
DNA 1: CCGCCTTAACCGGTCAACCTAAACATTTACCGCGCGATCGGGTGTTTGGTGA
DNA 2: CACAAAAACACCCGATCGCGCGGTAAATTGGGCTTGG
DNA 3: GACCGGTTAAGGCGG
B7: binds (Cas1;Cas2 [5]).
